System: M.HhaI DNA methyltransferase (Haemophilus parahaemolyticus)
Assay: cleavage_in_vitro
Conditions: up to 20% of compartmentalised genes protected from HhaI after 60-180 min; HaeIII and EcoRI sites not protected; SAM 80 uM, 25-30 C

DIG-M.HhaI-Biotin 1167 bp fragment
activity: 20%

From patent publication US6489103
